According to patent US12358963B2, “Regenerative polypeptides and uses thereof” (Juvena Therapeutics, Inc., priority 2019, dated 2025):

Columns and labels:
DM1 human myoblast = test: Gene expression fold change in DM1 human myoblast; type: cell-based; details: 48h; BMP7 50 ng/mL, Butyrate 100 nM, IGF2 200 ng/mL; FM 1.000
mouse myoblast cells = test: Mouse myoblast proliferation assay (EdU); type: cell-based; details: for % EdU / Ave. + EdU Count: 48h; for Ave. + EdU Count: FM 165
Description: (§1) FIG. 5A) Bar graph quantitation of % EdU+ mouse myoblast in response to BMP7. Myoblast were cultured 48h in the presence of BMP7 at indicated dose. Fresh media and BMP7 was added every 24h, followed by 2 hour EdU pulse and fixation. Mean∓S.D. Significant p-values (Vehicle˜BMP7 0.025 ug/mL: 1.21E-07, Vehicle˜BMP7 0.075 ug/mL: 8.05E-07, Vehicle˜BMP7 0.2255 ug/mL: 3.37E-03, Vehicle˜BMP7 0.9 ug/mL: 4.99E-02). FIG. 5B) Bar graph quantitation of % EdU+ human myoblast (person) in response to BMP7. Myoblast were cultured 72h in the presence of BMP7 at indicated dose. Cells were pulsed with EdU for 4 hours before fixation. Mean∓S.D. Significant p-values (Vehicle˜BMP7 1.56 ng/mL: 0.04). (*p<0.05 by Welch's One-Tailed T-test, n=2)
FIG. 6A) Bar graph of % EdU+ mouse myoblast cells compared to vehicle. Mouse myoblast were cultured 48h in the presence of indicated factors, followed by a 2 hour EdU pulse prior to fixation. Mean∓S.D. Significant p-values (FM˜BMP7: 0.008 ug/mL: 3.17E-02, FM˜Leucine: 300 uM BMP7: 0.008 ug/mL: 2.77E-03, FM˜Leucine: 100 uM BMP7: 0.008 ug/mL: 3.72E-05, FM˜Leucine: 900 uM BMP7: 0.008 ug/mL: 2.52E-03). (*p<0.05 by One-Way ANOVA Tukey Honest Significant Difference, n=2-6)
FIG. 7A: Bar graph of % EdU+ mouse myoblast cells compared to vehicle. Mouse myoblast were cultured 48h in the presence of indicated factors. EdU pulse and fixation. Mean∓S.D. (*p<0.05 by Student's One-Tailed T-Test of increased activity, n=2-6)
FIG. 10A) The suspension CHO cells were transiently transfected with either the empty control plasmid or the FGF17-hFcm encoding plasmid. After four days, the culture supernatants were collected and added into the culture of mouse myoblast cells for 48 hours, followed by a 2 hour EdU pulse prior to fixation. […] FIG. 10B) The suspension CHO cells were transiently transfected with the FGF17-hFcm encoding plasmid. After four days, the culture supernatants were collected and FGF17-hFcm was affinity-purified by Protein A membrane column. The purified FGF17-hFcm was added into the culture of mouse myoblast cells for 48 hours, followed by a 2 hour EdU pulse and fixation.
(§2) FIG. 11A: SDS-PAGE of culture supernatants from CHO cells transiently transfected with FGF17-hFcm or its mutants encoding plasmids (FGF17d181-216-hFcm, FGF17d204-216-hFcm, FGF17R204QK207Q-hFcm). The expressed FGF17-hFcm proteins and the mutant proteins were indicated by the white arrowheads. FIG. 11B) The culture supernatants from CHO cells transiently transfected with different FGF17 encoding plasmids were added into the culture of mouse myoblast cells for 48 hours followed by 2 hour EdU pulse and fixation.
as §2, with “12A)” for “11A:”, “(FGF17d197-216-hFcm, FGF17K191AK193AS200A-hFcm).” for “(FGF17d181-216-hFcm, FGF17d204-216-hFcm, FGF17R204QK207Q-hFcm).”, “12B)” for “11B)”, “hours,” for “hours”
(§3) FIG. 14A: Bar graph of % EdU+ mouse myoblast cells compared to vehicle. Myoblast were cultured 48h in the presence of indicated factors. Fresh media and factors were added every 24h, followed by 2 hour EdU pulse and fixation. Mean∓S.D. Table quantitation of % EdU and p-values (*p<0.05 by One-Way ANOVA Tukey Honest Significant Difference, n=2-6)
as §3, with “15A:” for “14A:”, “p-values shown.” for “p-values”, “Student's One-Tailed T-Test of increased activity,” for “One-Way ANOVA Tukey Honest Significant Difference,”
Bar graph of total EdU+ mouse myoblast cells compared per condition. Myoblast were cultured 48h in the presence of indicated factors. […]

human myoblast = test: Human myoblast proliferation (nuclei counts, EdU counts); type: cell-based; details: 72h; for Nuclei Counts: vehicle 2083.5
Description: as §1
Bar graph of total EdU+ mouse myoblast cells compared per condition. Myoblast were cultured 48h in the presence of indicated factors. Fresh media and factors were added every 24h, followed by 2 hour EdU pulse and fixation. Mean∓Standard Deviation(SD) Table quantitation of EdU counts per field and p-values for mouse assay (*p<0.05 by Student's One-Tailed T-Test of increased activity, n=3-6, Synergy values <1 are evidence of effect). Bar graph of total EdU+ human myoblast cells per condition. Myoblast were cultured 72h in the presence of indicated factors, followed by 4 hour EdU pulse and fixation. Fresh media and factors were added every 24h. Mean∓Standard Deviation(SD). Table quantitation of +EdU counts and p-values for human assay. (*p<0.05 by Student's One-Tailed T-Test of increased activity, n=3-6, Synergy values <1 are evidence of effect)

[1] = tested on: mouse myoblast cell lines; test: Myogenic gene RNA expression in mouse myoblasts by real-time qPCR; type: cell-based; details: 48h in fusion media
Description: (§4) Myogenic gene RNA expression (fold change to FM) in response to vehicle (FM) in mouse myoblast cell lines monitored by real-time qPCR. Myoblast were cultured 48h in fusion media. Mean±SD. n=3. (Y,Z) Differential induction of myogenic gene expression by FGF17 in human myoblast myoblasts. Quantitation table of myogenic gene RNA expression (fold change to FM-fusion media (DMEM+2% horse serum)) in response to FM or rh-FGF17 in aged human myoblast cell lines by real-time qPCR. Myoblast were cultured (B) 48 hours or (C) 72 hours in FM. Mean∓SD. n=3.
(§5) RNA was isolated from each well (RNeasy Mini Kit, Qiagen) and cDNA was obtained by reverse-transcription (High Capacity Reverse Transcription Kit, Thermo Fisher Scientific). Real-time quantitative PCR was performed using QuantStudio3 (Thermo Fisher).

human chondrocyte = test: Human chondrocyte proliferation (% EdU+); type: cell-based; details: 48h, vehicle 0.744
Description: Chondrocytes were cultured for 48h in the presence of FGF17 at indicated dose. FGF18 was added at 0.1 ug/mL as a positive control. Fresh media and FGF17 was added every 24h. Table of % EdU+ chondrocyte and p-values depicted. Mean∓S.D. (*p<0.05 by Tukey Honest Significant Difference T-test, n=2-3)

[2] = tested on: aged human myoblast cell lines; test: Myogenic gene RNA expression in aged human myoblasts by real-time qPCR; type: cell-based
Description: as §4, §5
Aged human myoblasts were cultured in well plates. […] Cells that had been cultured with IGF2 had increases in levels of MYOG at 48 hours and levels of MYOD at 72 hours.

78 weeks old mice = test: BaCl2 muscle injury in old mice, intramuscular FGF17; type: in vivo, mouse; details: FGF17 500 ng/mL intramuscular 2h and 48h after BaCl2 injury
Description: FIG. 16A) Experiment overview. Intramuscular injection of 1.2% of BaCl2 (7 ul/TA) was used to generate chemical injury in the TAs of 78 weeks old mice. FGF17 (500 ng/mL) was administered via intramuscular injection after 2h and 48h of muscle injury. FIG. 16B) Quantification of the regenerative index calculated as the number of newly regenerated fibers per mm 2 of injury area. Regenerated fibers were identified as fibers with central nuclei,****p<0.0001 (unpaired t-test). FIG. 16C) Histogram showing the fibrotic index calculated as the percentage of the fibrotic area. *p=0.0186 (unpaired t-test).

12 weeks old mice = test: Dexamethasone induced muscle atrophy, FGF17; type: in vivo, mouse; details: Dexamethasone 25 mg/kg i.p. 20 days; FGF17 0.5 mg/kg subcutaneous
Description: FIG. 17A) Experiment overview and groups. […] Muscle weight was assessed on Day 21. Forelimb grip strength and both limb grip strength were measured on Day 7, 13 and 21 FIG. 17B) TAs muscle weight over initial body weight shown as the percentage change from vehicle. ***p=0.0005, *p=0.0499. […] One way Anova corrected for multiple comparisons using Tukey method was used to compare data.
The experimental design is C57BL/6J male mice with daily administration of Vehicle, N=7; dexamethasone (25 mg/kg i.p.), N=6, or dexamethasone+treatment article, N=6, for 20 days. This design can be used to test any single factor identified and validated in in vitro assays or complex mixtures of 2 or more factors.
On day 21, animals are sacrificed, and animal weight recorded. 0.5 ml of blood is collected via cardiac puncture and processed to plasma for storage of plasma samples at −80° C. The animals are perfused with 1×PBS. After carefully dissecting the skin from the GA/TA muscles of each hind leg, photos are taken, followed by excision of exclusively the GA or TA muscle, weighing the muscles, then flash freezing in isopentane at −80 C.

B1: BMP7: BMP7 polypeptide, BMP receptor agonist (protein, UniProt P18075 293-431, looked up)
Bone morphogenetic protein 7: STGSKQRSQNRSKTPKNQEALRMANVAENSSSDQRQACKKHELYVSFRDLGWQDWIIAPEGYAAYYCEGECAFPLNSYMNATNHAIVQTLVHFINPETVPKPCCAPTQLNAISVLYFDDSSNVILKKYRNMVVRACGCH
MYF5 expression fold change compared to FM (DM1 human myoblast): 0.709
MYOD1 expression fold change compared to FM (DM1 human myoblast): 0.709
MYOG expression fold change compared to FM (DM1 human myoblast): 0.361
% EdU (mouse myoblast cells; BMP7 0.025 ug/mL, vehicle 10.56): 18.08%
% EdU (mouse myoblast cells; BMP7 0.075 ug/mL, vehicle 10.56): 17.53%
% EdU (mouse myoblast cells; BMP7 0.2255 ug/mL, vehicle 10.56): 14.93%
% EdU (mouse myoblast cells; BMP7 0.45 ug/mL, vehicle 10.56): 12.93%
% EdU (mouse myoblast cells; BMP7 0.9 ug/mL, vehicle 10.56): 13.91%
% EdU (mouse myoblast cells; BMP7 1.8 ug/mL, vehicle 10.56): 10.37%
Nuclei Counts (human myoblast; BMP7 0.78 ng/mL, donor): 2144.5
Nuclei Counts (human myoblast; BMP7 1.56 ng/mL): 2552.5
Nuclei Counts (human myoblast; BMP7 3.12 ng/mL): 2408
Nuclei Counts (human myoblast; BMP7 6.25 ng/mL): 2422.5
Nuclei Counts (human myoblast; BMP7 12.5 ng/mL): 2706
Nuclei Counts (human myoblast; BMP7 25 ng/mL): 2509

B2: FGF17: FGF17 polypeptide, FGFR agonist (protein, listed as Homo sapiens)
chain: TQGENHPSPNFNQYVRDQGAMTDQLSRRQIREYQLYSRTSGKHVQVTGRRISATAEDGNKFAKLIVETDTFGSRVRIKGAESEKYICMNKRGKLIGKPSGKSKDCVFTEIVLENNYTAFQNARHEGWFMAFTRQGRPRQASRSRQNQREAHFIKRLYQGQLPFPNHAEKQKQFEFVGSAPTRRTKRTRRPQPLT
Myf5 RNA expression (fold change to FM), Mean ([1]; FM 1.002): 1.376
Myod1 RNA expression (fold change to FM), Mean ([1]; FM 1.002): 1.230
Pax7 RNA expression (fold change to FM), Mean ([1]; FM 1.011): 6.118
% EdU (human chondrocyte; 0.1 ug/mL): 4.675%
% EdU (human chondrocyte; 0.20 ug/mL): 9.085%
% EdU (human chondrocyte; 0.40 ug/mL): 16.773%
MYOD1 RNA expression (fold change to FM) ([2]; 48 hr, FM 1.001): 0.604
MYOG RNA expression (fold change to FM) ([2]; 48 hr, FM 1.013): 2.353
MYF5 RNA expression (fold change to FM) ([2]; 48 hr, FM 1.04): 1.922
MYF5 RNA expression (fold change to FM) ([2]; 72 hr, FM 1.023): 0.499
MYOD1 RNA expression (fold change to FM) ([2]; 72 hr, FM 1.055): 1.627
MYOG RNA expression (fold change to FM) ([2]; 72 hr, FM 1.092): 13.124
% EdU (mouse myoblast cells; FGF17 0.0062 ug/mL, vehicle 3.14): 4.81%
Ave. + EdU Count (mouse myoblast cells; FGF17 0.01 ug/mL): 476
% EdU (mouse myoblast cells; FGF17 0.0125 ug/mL, vehicle 3.14): 3.02%
% Edu (mouse myoblast cells; FGF17 0.025 ug/mL, 48h (HA experiment), FM 11.162): 17.870%
% EdU (mouse myoblast cells; FGF17 0.025 ug/mL, vehicle 3.14): 3.85%
Ave. + EdU Count (mouse myoblast cells; FGF17 0.1 ug/mL): 1618
Fibrotic index (78 weeks old mice): reducing fibrosis
Muscle regeneration (regenerative index) (78 weeks old mice): Promoted the Regeneration of Muscle
Muscle atrophy (muscle weight, forelimb and both limb force) (12 weeks old mice): Protects Against Dexamethasone Induced Muscle Atrophy
Ave. + EdU Counts (human myoblast; FGF17 0.1 ug/mL, FM 205): 349

B3: FGF18: FGF18 added at 0.1 ug/mL as a positive control (protein, UniProt O76093 28-207, looked up)
Fibroblast growth factor 18: EENVDFRIHVENQTRARDDVSRKQLRLYQLYSRTSGKHIQVLGRRISARGEDGDKYAQLLVETDTFGSQVRIKGKETEFYLCMNRKGKLVGKPDGTSKECVFIEKVLENNYTALMSAKYSGWYVGFTKKGRPRKGPKTRENQQDVHFMKRYPKGQPELQKPFKYTTVTKRSRRIRPTHPA
% EdU (human chondrocyte; 0.1 ug/mL): 6.039%
